In patent US20240270853A1 (Chugai, published 2024):

T1: Recombinant mouse DDR2 ECD-Fc (R&D systems, Cat. No. 7479-DR-050) (mouse, UniProt Q62371 22-399, biotinylated)
T1 construct: Bought protein; not shown: Fc part of the bought fusion protein, not described
T1 sequence: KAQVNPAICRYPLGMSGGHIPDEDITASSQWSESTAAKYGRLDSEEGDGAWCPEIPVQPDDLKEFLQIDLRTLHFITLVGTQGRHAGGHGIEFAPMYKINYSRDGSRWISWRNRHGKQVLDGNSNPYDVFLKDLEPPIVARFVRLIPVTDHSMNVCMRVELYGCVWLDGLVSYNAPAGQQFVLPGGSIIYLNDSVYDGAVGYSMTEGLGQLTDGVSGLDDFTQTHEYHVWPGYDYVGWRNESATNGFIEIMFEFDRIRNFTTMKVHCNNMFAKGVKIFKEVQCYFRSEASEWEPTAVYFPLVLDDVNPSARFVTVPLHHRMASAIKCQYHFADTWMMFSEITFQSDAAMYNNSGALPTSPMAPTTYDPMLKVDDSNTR

B1: DAB0069 (antibody, V domains shown)
VH: QSLEESGGRLVTPGTPLTLTCTASGFSLSNYYMQWVRQAPGKGLEWIGIVYPGSSAYYANWAKGRFTISKTSTTVDLKMTSLTTEDTATYFCAGSSNSVYSFNLWGQGTLVTVSS
VL: AYDMTQTPSSVSAAVGGTVTIKCQASESIYRSLAWYQQKPGQPPKLLIYSASTLTSGVSSRFKGSGSGTEFTLTISDLECADAGTYYCQQGGSFSNIVNTFGGGTKVEIK
notes: Variable regions from immunized rabbits
B2: DAB0094 (antibody, V domains shown)
VH: QSVEESGGRLVTPGTPLTLTCTVSGFSLSSYSVAWVRQAPGKGLEWIGYISYSGSTYYASWVNGRFTISKTSTTVDLKMTSLTASDTATYFCARDPGYSRDLWGQGTLVTVSS
VL: DVVMTQTPSSVSEPVGGTVTIKCQASQSIGSYLSWYQQKPGQPPKLLIYRASTLASGVSSRFKGSGSGTEFTLTINGLECADAAIYYCQSSYVGVSHGSFGGGTKVEIK
notes: as for B1
B3: DAB0065 (antibody, V domains shown)
VH: QSVEESGGRLVTPGTPLTLTCTVSGFSLSTSAMSWVRQAPGKGLEWIGMITYGGSGSTWYASWANGRFTISKTSTTVTLKMTSPTTEDTASYFCARVYGTIGSNFYSIYSFNLWGQGTLVTVSS
VL: AAVLTQTPSPVSAAVGGTVSISCQSSKSVYNSNYLSWYQQKPGQPPKLLIYYTSALASGVSSRFKGSGSGTRFTLTISDVQCDDAATYYCAGGYSSSSDNGFGGGTKVEIK
notes: as for B1
B4: DAB0048 (antibody, V domains shown)
VH: QSVEESGGRLITPGTPLTLTCTASGFSLSIYYMIWVRQAPGKGLEWIGYIWSGSTTDYASWAKGRFTISKTSTTVDLKITSPTTEDTATYFCARVYAGYGYGSDLWGQGTLVTVSS
VL: AAVLTQTPSPVSAAVGGTVSISCQSSQSVYNNNWLAWYQQKPGQPPKLLIYSASTLASGVPSRFKGSGSGTQFTLTISDVQCDDAATYYCAGGYSTNSDKNAFGGGTKVEIK
notes: as for B1
B5: DAB0060 (antibody, V domains shown)
VH: QSVEESGGRLVTPGTALTLTCTASGFSLSSYDMSWVRQAPGEGLEWIGTIFTEGSTSCASWVKGRFTISRTSTTVDLKITSPTTEDTATYFCVRGTTSNRLWGQGTLVTVSS
VL: DVVMTQTPASVEAVVGATVTIRCQASESITNYLSWYQQKPGQPPKVLIYYASTLESGVPSRFKGSGSGTQFTLTISDLECADAATYYCQSNYFSSSYSYGNTFGGGTKVEIK
notes: as for B1
B6: DAB0045 (antibody, V domains shown)
VH: QSVEESGGRLVTPGTPLTLTCTVSGFSLSSYSMGWVRQAPGKGLEYIGVINTSDSAYYASWAKGRFTISRTSTTVDLKMTSLTTEDTATYFCARAIGYYGSGWGACYFNLWGQGTLVTVSS
VL: AIKMTQTPSSVSAAVGGTVTVNCQASEDIKSYLAWYQQKPGQPPKLLIYSASTLASGVSSRFKGSGSGTQFTLTISDLECADAATYYCQSYYGTSTTGEYNAFGGGTKVEIK
notes: as for B1

Legend:
[1] = molecular target: T1, Recombinant mouse DDR2 ECD-Fc (R&D …); assay: Octet tandem binning on captured mouse DDR2 ECD-Fc; competitor Ab1 (bound first) DAB0065
Procedure: (§1) Competitive epitope binning experiment was performed by real-time binding assay using Octet (Pall ForteBio). Recombinant mouse DDR2 ECD-Fc (R&D systems, Cat. No. 7479-DR-050) was biotinylated and captured onto streptavidin biosensor tips (Pall ForteBio) as antigen. The antigen captured tips were dipped into 15 or 40 microgram (micro g)/mL of a first set of antibodies for 300 seconds. Then the tips were incubated with 15 or 40 micro g/mL of a second set of antibodies for 300 seconds. To eliminate an effect of antibody dissociation, the antibody concentration in the second set was the same with that of the first set. Result was analyzed by DATA Analysis HT software (Pall ForteBio, Version 10.0.1.7).
(§2) In Table 3, “Abl” indicates antibody in the first set and “Ab2” indicates antibody in the second set.

[2] = molecular target: T1, Recombinant mouse DDR2 ECD-Fc (R&D …); assay: Octet tandem binning on captured mouse DDR2 ECD-Fc; competitor Ab1 (bound first) DAB0048
Procedure: as §1, §2

[3] = molecular target: T1, Recombinant mouse DDR2 ECD-Fc (R&D …); assay: Octet tandem binning on captured mouse DDR2 ECD-Fc; competitor Ab1 (bound first) DAB0045
Procedure: as §1, §2

[4] = molecular target: T1, Recombinant mouse DDR2 ECD-Fc (R&D …); assay: Octet tandem binning on captured mouse DDR2 ECD-Fc; competitor Ab1 (bound first) DAB0069
Procedure: as §1, §2

[5] = molecular target: T1, Recombinant mouse DDR2 ECD-Fc (R&D …); assay: Octet tandem binning on captured mouse DDR2 ECD-Fc; competitor Ab1 (bound first) DAB0093
Procedure: as §1, §2

[6] = molecular target: T1, Recombinant mouse DDR2 ECD-Fc (R&D …); assay: Octet tandem binning on captured mouse DDR2 ECD-Fc; competitor Ab1 (bound first) DAB0060
Procedure: as §1, §2

[7] = molecular target: T1, Recombinant mouse DDR2 ECD-Fc (R&D …); assay: Octet tandem binning on captured mouse DDR2 ECD-Fc; competitor Ab1 (bound first) DAB0094
Procedure: as §1, §2

Row | Binder | Octet response of Ab2 [1] | Octet response of Ab2 [2] | Octet response of Ab2 [3] | Octet response of Ab2 [4] | Octet response of Ab2 [5] | Octet response of Ab2 [6] | Octet response of Ab2 [7]
1 | B1 | -0.0058 | 1.57 | 0.0335 | 0 | 1.5 | 1.35 | –
2 | B2 | 1.37 | 1.42 | 1.22 | 1.3 | 1.48 | 0.0985 | 0
3 | B3 | 0 | 1.65 | 0.0398 | 0.0322 | 1.66 | 1.51 | 1.55
4 | B4 | 1.49 | 0 | 1.32 | 1.47 | -0.0129 | 1.31 | 1.5
5 | B5 | 0.766 | 0.82 | 0.591 | 0.615 | 0.857 | 0 | -0.054
6 | B6 | -0.0102 | 1.2 | 0 | -0.001 | 1.13 | 1.09 | 1.07
